{
  "source": "paper PMC10144703",
  "about": "“Molecular Mechanism of Sirtuin 1 Inhibition by Human Immunodeficiency Virus 1 Tat Protein” (Life, 2023)",
  "target": "human full-length Sirt1 (human) (UniProt Q96EB6)",
  "sequence (Q96EB6 whole entry, the tested form may be a part)": "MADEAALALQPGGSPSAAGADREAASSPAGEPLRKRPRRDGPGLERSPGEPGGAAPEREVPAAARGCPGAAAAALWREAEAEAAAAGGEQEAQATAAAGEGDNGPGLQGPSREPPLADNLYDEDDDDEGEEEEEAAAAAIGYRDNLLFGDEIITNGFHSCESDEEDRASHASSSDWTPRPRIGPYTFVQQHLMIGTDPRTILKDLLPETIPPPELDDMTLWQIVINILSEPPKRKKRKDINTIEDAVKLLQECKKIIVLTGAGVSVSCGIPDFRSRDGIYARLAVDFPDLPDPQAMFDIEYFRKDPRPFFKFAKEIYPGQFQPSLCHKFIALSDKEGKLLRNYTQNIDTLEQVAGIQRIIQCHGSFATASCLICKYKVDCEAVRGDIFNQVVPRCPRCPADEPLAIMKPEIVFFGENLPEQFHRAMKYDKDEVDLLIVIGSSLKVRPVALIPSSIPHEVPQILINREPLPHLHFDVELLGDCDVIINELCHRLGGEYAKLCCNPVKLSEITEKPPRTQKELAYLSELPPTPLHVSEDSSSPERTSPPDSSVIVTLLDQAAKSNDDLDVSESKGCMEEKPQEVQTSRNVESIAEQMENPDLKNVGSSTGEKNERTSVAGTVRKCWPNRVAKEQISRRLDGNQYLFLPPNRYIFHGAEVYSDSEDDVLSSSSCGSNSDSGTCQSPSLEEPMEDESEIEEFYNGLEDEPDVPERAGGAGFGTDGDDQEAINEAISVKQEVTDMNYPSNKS",
  "data": [
    {"substance": "Tat-Cys^−-(1–63) (from UniProt P12506 1-63) (domain or fragment)", "values": [
      {"measurement": "inhibition of fl-Sirt1 in the FdL assay at 100 µM FdL-1; IC50", "value": 10, "unit": "µM"}
    ]},
    {"substance": "Tat-Cys^−-(21–63) (from UniProt P12506 21-63) (domain or fragment)", "values": [
      {"measurement": "inhibition of fl-Sirt1 in the FdL assay at 100 µM FdL-1; potency (IC50)", "value": 30, "unit": "µM"}
    ]}
  ]
}
